Biological target: haloalkane dehalogenase DmmarA from Mycobacterium marinum M (Mycobacterium marinum M)
Test: SAXS; SEC-purified DmmarA at 2, 4.5 and 8.7 mg/ml in 50 mM sodium acetate, 10 mM Tris pH 8.5; scattering curves fitted to the crystallographic monomer and dimer (CRYSOL), ab initio model (DAMMIN)

stoichiometry N: 2
Substance: haloalkane dehalogenase DmmarA from Mycobacterium marinum M (enzyme)
